The results in this text go back to patent US20190023810A1 (MIT, published 2019).

One assay addresses T1, CD20 (UniProt P11836 1-297, limits assumed).
T1 sequence (looked up): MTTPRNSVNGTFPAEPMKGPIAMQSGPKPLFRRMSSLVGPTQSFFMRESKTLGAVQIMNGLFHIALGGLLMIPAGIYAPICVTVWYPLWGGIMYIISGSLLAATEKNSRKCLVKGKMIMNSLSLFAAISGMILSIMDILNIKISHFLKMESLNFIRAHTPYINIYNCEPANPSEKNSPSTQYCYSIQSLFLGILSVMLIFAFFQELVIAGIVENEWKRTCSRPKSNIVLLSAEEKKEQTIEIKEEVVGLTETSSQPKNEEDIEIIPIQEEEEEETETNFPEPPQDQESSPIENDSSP
Description: CD20 binding titration; legend and text call it an ELISA, but the y axis 'Mean APC-A Intensity' fits the flow cytometry cell-based binding assay on Raji cells.

The target of another assay is T2, HER1 (UniProt P00533 25-645, limits assumed).
T2 construct: also called EGFR
Description: single antigen ELISA, antigen coated; printed as Kd′, from a 4 parametric fit. As to the method: (§1) Briefly 96-well plates were coated overnight at […] with appropriate antigen. The plates were washed and blocked with 1% blotto (Santa Cruz Biotechnologies). Serial dilution of antibodies were added to the plate and incubated for 2 hours at room temperature. Antigen bound IgG was detected using RbαHu IgG HRP Conjugated secondary antibody (Jackson ImmunoResearch) followed by TMB substrate (KPL) addition.

The target of assay [1] is T3, HER3 (UniProt P21860 20-643, limits assumed). Described as above. Here is the method: as §1
A further assay concerns the target PD1 (UniProt Q15116 25-167, limits assumed). Description: sandwich (dual antigen) ELISA for PD1 and VEGF bound at once; the filing does not say which antigen is coated and which is detected. In general terms: In an ELISA, binding on a coated surface is turned into a signal by an enzyme label.
For a further assay, the target named is VEGF (UniProt P15692-4 27-191, limits assumed). The description is as above.
Sequence of VEGF (P15692 other isoform, or with tags, fused parts or gaps limits assumed): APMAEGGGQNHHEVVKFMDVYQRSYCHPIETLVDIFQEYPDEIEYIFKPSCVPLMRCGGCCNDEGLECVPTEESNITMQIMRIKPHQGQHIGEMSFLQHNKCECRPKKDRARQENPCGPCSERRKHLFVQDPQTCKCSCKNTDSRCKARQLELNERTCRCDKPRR
Assay [2] addresses T3, HER3. Description: single antigen ELISA, HER3 coated, anti-human IgG HRP detection. Here is the method: as §1

Sequence of PD1 (Q15116 25-167 limits assumed): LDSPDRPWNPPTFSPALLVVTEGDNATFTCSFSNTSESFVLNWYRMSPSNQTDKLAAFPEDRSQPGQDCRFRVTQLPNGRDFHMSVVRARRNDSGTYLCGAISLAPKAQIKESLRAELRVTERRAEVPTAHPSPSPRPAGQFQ

B1: rituximab/obinutuzumab bispecific antibody (bispecific antibody, human IgG1, kappa)
light 1: QIVLSQSPAILSASPGEKVTMTCRASSSVSYIHWFQQKPGSSPKPWIYATSNLASGVPVRFSGSGSGTSYSLTISRVEAEDAATYYCQQWTSNPPTFGGGTKLEIKRTVAAPSVFIFPPSDEDLKSGTASVVCLLDNFYPREAKVQWKVDNALQSGNSQESVTEQDSKDSTYSLSSTLTLSKADYEKHKVYACEVTHQGLSSPVTKSFNRGEC
heavy 1: not shown
light 2: DIVMTQTPLSLPVTPGEPASISCRSSKSLLHSNGITYLYWYLQKPGQSPQLLIYQMSNLVSGVPDRFSGSGSGTDFTLKISRVEAEDVGVYYCAQNLELPYTFGGGTKVEIKRTVAAPSVFIFPPSDEKLKSGTASVVCLLKNFYPREAKVQWKVDNALQSGNSQESVTEQDSKDSTYSLSSALTLSKADYEKHKVYACEVTHQGLSSPVTKSFNRGEC
heavy 2: not shown
notes: Human IgG1/kappa bispecific with four different chains; Both arms are anti-CD20; also called Rxm/Ga101; Rxm/GA101
Turning to B1, the EC50 (read off the curve) (in general, the midpoint of the concentration-response curve) with CD20 was around 2 µg/mL.

B2: DL11 WT (antibody, V domains shown)
VH: EVQLVESGGGLVQPGGSLRLSCAASGFTLSGDWIHWVRQAPGKGLEWLGEISAAGGYTDYADSVKGRFTISADTSKNTAYLQMNSLRAEDTAVYYCARESRVSFEAAMDYWGQGTLVTVSS
VL: DIQMTQSPSSLSASVGDRVTITCRASQDLATDVAWYQQKPGKAPKLLIYSASFLYSGVPSRFSGSGSGTDFTLTISSLQPEDFATYYCQQSEPEPYTFGQGTKVEIKR
notes: also called MEHD7945A
On to B2, for which the Kd – broadly, the constant that tells how readily two partners part at equilibrium – in the assay with HER1 is 0.0415 nM.

B3: pertuzumab/DL11 bispecific antibody (bispecific antibody, human IgG1, kappa)
light 1: DIQMTQSPSSLSASVGDRVTITCKASQDVSIGVAWYQQKPGKAPKLLIYSASYRYTGVPSRFSGSGSGTDFTLTISSLQPEDFATYYCQQYYIYPYTFGQGTKVEIKRTVAAPSVFIFPPSDEDLKSGTASVVCLLDNFYPREAKVQWKVDNALQSGNSQESVTEQDSKDSTYSLSSTLTLSKADYEKHKVYACEVTHQGLSSPVTKSFNRGEC
heavy 1: not shown
light 2: DIQMTQSPSSLSASVGDRVTITCRASQDLATDVAWYQQKPGKAPKLLIYSASFLYSGVPSRFSGSGSGTDFTLTISSLQPEDFATYYCQQSEPEPYTFGQGTKVEIKRTVAAPSVFIFPPSDEKLKSGTASVVCLLKNFYPREAKVQWKVDNALQSGNSQESVTEQDSKDSTYSLSSALTLSKADYEKHKVYACEVTHQGLSSPVTKSFNRGEC
heavy 2: not shown
notes: Human IgG1/kappa bispecific with four different chains; Expressed in Freestyle 293 cells and purified by protein A, gel filtration and the cation exchange main peak; also called P/D; P/D bi-specific
Turning to B3, the Kd with HER3 [1] and with HER1 was 0.0898 nM throughout.

B4: nivolumab/bevacizumab bispecific antibody (bispecific antibody, human IgG1, kappa)
light 1: not shown
heavy 1: not shown
light 2: DIQMTQSPSSLSASVGDRVTITCSASQDISNYLNWYQQKPGKAPKVLIYFTSSLHSGVPSRFSGSGSGTDFTLTISSLQPEDFATYYCQQYSTVPWTFGQGTKVEIKRTVAAPSVFIFPPSDEKLKSGTASVVCLLKNFYPREAKVQWKVDNALQSGNSQESVTEQDSKDSTYSLSSALTLSKADYEKHKVYACEVTHQGLSSPVTKSFNRGEC
heavy 2: not shown
notes: Human IgG1/kappa bispecific with four different chains; also called BsAb
Consider B4, for which the “EC50 (read off the curve)” value with PD1 and with VEGF was around 0.2 µg/mL in each case.

B5: Pertuzumab WT (antibody, V domains shown)
VH: EVQLVESGGGLVQPGGSLRLSCAASGFTFTDYTMDWVRQAPGKGLEWVADVNPNSGGSIYNQRFKGRFTLSVDRSKNTLYLQMNSLRAEDTAVYYCARNLGPSFYFDYWGQGTLVTVSS
VL: DIQMTQSPSSLSASVGDRVTITCKASQDVSIGVAWYQQKPGKAPKLLIYSASYRYTGVPSRFSGSGSGTDFTLTISSLQPEDFATYYCQQYYIYPYTFGQGTKVEIKR
With B5, in the assay with HER3 [2], the binding result was “no binding (tested: 1 (axis 'Ab Conc.', no unit printed))”.
